In article PMC11016868:

T1: MtrAC (MtrA DNA-binding domain) (UniProt P9WGM7 131-228)
T1 sequence: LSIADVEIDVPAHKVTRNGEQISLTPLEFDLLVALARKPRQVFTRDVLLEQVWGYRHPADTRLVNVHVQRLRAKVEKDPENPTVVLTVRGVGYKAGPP


Tests used:
PhoP = PhoP (UniProt P71814 1-247); assay: fluorescence polarization
[1] = molecular target: T1, MtrAC (MtrA DNA-binding domain); assay: fluorescence polarization

| Binder | binding result (PhoP) | Kd [1] |
| --- | --- | --- |
| PhoP DNA (from PhoP-DNA complex, 5ED4) (dsDNA) DNA 1: GATTCACAGCTGATTCACAGCATCTA DNA 2: TAGATGCTGTGAATCAGCTGTGAATC | binds | – |
| dnaA promoter DNA (dsDNA) DNA 1: GGCGGTGTAGTTATCACGCCGTTT DNA 2: AAACGGCGTGATAACTACACCGCC | – | 1.23 ± 0.26 µM |
